Laboratory results as given in patent US20170320910A1 (published 2017).
[ ]: non-standard residue; d: D form. Phe(2-Cl) = N[C@@H](Cc1ccccc1Cl)C(=O)O

Key:
VASP-EVH1 domain [1] = molecular target: VASP-EVH1 domain (UniProt P50552); experiment: fluorescence titration (FT)
VASP-EVH1 domain [2] = molecular target: VASP-EVH1 domain (UniProt P50552); experiment: ITC
VASP-EVH1 domain [3] = molecular target: T1, VASP-EVH1 domain (UniProt P50552 1-115); experiment: fluorescence titration (FT)
T1 construct: domain: EVH1

VASP-EVH1 domain [4] = molecular target: T1, VASP-EVH1 domain; experiment: ITC

T1 sequence (P50552 1-115 limits assumed): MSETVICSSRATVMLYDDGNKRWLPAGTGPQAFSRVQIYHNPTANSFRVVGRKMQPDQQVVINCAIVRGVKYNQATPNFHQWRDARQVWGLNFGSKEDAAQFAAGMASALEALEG
Chain of VASP-EVH1 domain (UniProt P50552) (P50552 1-115 limits assumed): as above

| Molecule | Kd (VASP-EVH1 domain [1]) [µM] | ΔG (VASP-EVH1 domain [1]) [kcal/mol] | Kd (VASP-EVH1 domain [2]) [µM] | ΔG (VASP-EVH1 domain [2]) [kcal/mol] | Kd (VASP-EVH1 domain [3]) [µM] | ΔG (VASP-EVH1 domain [3]) [kcal/mol] | Kd (VASP-EVH1 domain [4]) [µM] | ΔG (VASP-EVH1 domain [4]) [kcal/mol] |
| --- | --- | --- | --- | --- | --- | --- | --- | --- |
| Ac-Phe(2-Cl)-PP[ProM-1]-OH (peptide) | 3.2 | -7.5 | 14.1 | -6.62 |  |  |  |  |
| Ac-Phe(2-Cl)-PP[ProM-9]-OH (peptide) | 0.4 | -8.77 | 8 | -6.96 |  |  |  |  |
| Ac-Phe(2-Cl)-[ProM-2][ProM-4]-OH | 1.6 | -7.91 | 9.7 | -6.84 |  |  |  |  |
| Ac-[Phe(2-Cl)]PPPP-OH (SMILES CC(=O)N[C@@H](Cc1ccccc1Cl)C(=O)N1CCC[C@H]1C(=O)N1CCC[C@H]1C(=O)N1CCC[C@H]1C(=O)N1CCC[C@H]1C(=O)O) [Ac-Phe(2-Cl)-PPPP-OH] |  |  |  |  | 13 | -6.64 | 18 | -6.45 |
| Ac-FPPPP-OH (Starting ligand shortened to the FPPPP core motif; also called FPPPP core motif ligand) [Ac-FPPPP-OH] |  |  |  |  | 780 | -4.23 | 1300 | -3.94 |
